T1: SLAMF6 (human, UniProt Q96DU3)
T1 chain: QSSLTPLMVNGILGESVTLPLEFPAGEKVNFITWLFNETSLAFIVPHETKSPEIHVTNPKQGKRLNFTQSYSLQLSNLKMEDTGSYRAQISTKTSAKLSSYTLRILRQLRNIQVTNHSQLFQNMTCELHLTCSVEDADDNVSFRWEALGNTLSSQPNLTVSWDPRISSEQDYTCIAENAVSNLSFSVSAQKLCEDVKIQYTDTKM


Molecular target: T1, SLAMF6
Assay: SPR

| Kd [nM] | Binder |
| --- | --- |
| 6 | LB-116 (antibody, V domains shown) VH: EVQLLESGGGLVQPGGSLRLSCAASGFTFSYSYMYWVRQAPGKGLEWVSSISSSGGSTSYADSVKGRFTISRDNSKNTLYLQMNSLRAEDTAVYYCARPNVDSYMDYWGQGTLVTVSS VL: DIQMTQSPSSLSASVGDHVTITCRASQSISSYLNWYQQKPGKAPKLLIYAASSLQSGVPSRFSGSGSGTDFTLTISSLQPEDFATYYCQQSYIYLPFTFGQGTKLEIK |
| 16 | LB-302 (antibody, V domains shown) VH: EVQLLESGGGLVQPGGSLRLSCAASGFTFGGYGMSWVRQAPGKGLEWVSYIGYGGSYTYYADSVKGRFTISRDNSKNTLYLQMNSLRAEDTAVYYCARDGAGSYGFFDYWGQGTLVTVSS VL: DIQMTQSPSSLSASVGDHVTITCRASQSISSYLNWYQQKPGKAPKLLIYAASSLQSGVPSRFSGSGSGTDFTLTISSLQPEDFATYYCQQFYTNPLLTFGQGTKLEIK |
| 12 | LB-032 (antibody, V domains shown) VH: EVQLLESGGGLVQPGGSLRLSCAASGFTFGSYGMSWVRQAPGKGLEWVSYISYSGSYTYYADSVKGRFTISRDNSKNTLYLQMNSLRAEDTAVYYCARGADYYSVLDYWGQGTLVTVSS VL: DIQMTQSPSSLSASVGDHVTITCRASQSISSYLNWYQQKPGKAPKLLIYAASSLQSGVPSRFSGSGSGTDFTLTISSLQPEDFATYYCQQFSTSPPSTFGQGTKLEIK |
| 0.38 | LB-031 (antibody, V domains shown) VH: EVQLLESGGGLVQPGGSLRLSCAASGFTFGSYYMGWVRQAPGKGLEWVSYISGYSGYTYYADSVKGRFTISRDNSKNTLYLQMNSLRAEDTAVYYCARFSSPAGYPRMDYWGQGTLVTVSS VL: DIQMTQSPSSLSASVGDHVTITCRASQSISSYLNWYQQKPGKAPKLLIYAASSLQSGVPSRFSGSGSGTDFTLTISSLQPEDFATYYCQQYYTLPTFGQGTKLEIK |
| 4.1 | LB-20H10 (antibody, V domains shown) VH: QVQLQQSGAELVRPGTSVKMSCKAAGYTFTNYWIGWVKQRPGHGLEWIGDIYPGGGYTHHNEKFKGKATLTADTSSSTAYMQLSSLTSEDSAIYYCARSVLPGFAYWGQGTLVTVSA VL: DIVMTQSHKFMSTSVGDRVSITCKASQDVNTAVAWCQQKPGQSPKLLIYSASYRFTGVPDRFTGSGSGTDFTFTISSVQAEDLAVYFCQQHYSTPYTFGGGTKLEIK |
